What was measured:
[1] = molecular target: Lst-ABD, recombinant fusion protein with lysostaphin at the N-terminus and the albumin-binding domain from streptococcal protein G at the C-terminus (not stated | Streptococcus sp.); assay: photonic crystal-based biosensor (EVA 2.0); Lst-ABD immobilised covalently by amine coupling (EDC/NHS) on a carboxylate-derivatized photonic crystal chip; albumin in PBST (PBS + 0.02% Tween-20, pH 7.4) pumped through the flow cell, ~5 min association, ~5 min dissociation; RSA 250, 42, 7 and 1.2 µg/mL, BSA 1 mg/mL; heterogeneous binding model with two independent sites, koff1 = koff2 fixed
[2] = molecular target: Lst-ABD, recombinant fusion protein with lysostaphin at the N-terminus and the albumin-binding domain from streptococcal protein G at the C-terminus (not stated | Streptococcus sp.)

Substance: rat serum albumin (from UniProt P02770 25-608) (natural protein)
- KD1 (high-affinity site) [1]: 2.3 nM
- KD2 (low-affinity site) [1]: 20 nM
- koff [1]: 5.9e-05 s⁻¹
- kon1 (high-affinity site) [1]: 26000 M⁻¹ s⁻¹
- kon2 (low-affinity site) [1]: 3000 M⁻¹ s⁻¹
- rate of clearing of S. aureus ATCC 29213 cell suspension (turbidimetry, OD 550 nm) by Lst-ABD in the presence of 100 µg/mL RSA, relative to lysostaphin [2]: 25%

Source: PMC6719061
